# In US9441018B2, “Gene from tidal flat metagenome and a novel protein displaying both phospholipase and lipase activities” (KOREA RESEARCH INSTITUTE OF BIOSCIENCE AND BIOTECHNOLOGY, priority 2011, dated 2016):
# B1: MPIaG: catalytic domain of PlaG, SEQ. ID. NO: 5, protein having both phospholipase and lipase activities, from tidal flat metagenome (protein)
# chain: LNQSDYEKAIDYGKLSAQAYDWDDYAAAHVGMGFFANIDDIKATDFATPNYVEVQSVGGYIDWWGTDGLDFKVFQNTETDDLVVAYKGTEPLSPVDWVADAEQIFGNSEQYQKAVDFARDLSAQVEQYNVQNGLTGDAAMQLSFTGHSLGGGLATASALATGREAMAFDAAGLSQGTINNLGLDIRHASKITNFNVKGDWLSDHNKQMDDTTLGSELAGIVPETKQYGNTYWLEGINDIADFGGWLVPDNNMAVDFAKSILNHAWHVYVYMLENDKFL
# modifications: phospholipase/lipase MPlaG AA
# Key:
# [1] = Spectrophotometric assay with para-nitrophenyl ester substrate; assay type: biochemical
# Method: (§1) First method was pH-stat.
# (§2) To investigate the enzyme activity over pH, the activities were measured in different pH buffers. […] After staying at different pH for 180 minutes, the remaining activity was measured. As a result, the enzyme activity was maintained stably in the pH range of 5˜10 (FIG. 5). Phospholipase and lipase activity over temperature was also investigated. […] The enzyme activity was still observed at 5° C. (39% of maximum activity). When the temperature was raised more than the optimum activity temperature above, the activity was decreased rapidly (FIG. 6). In addition, melting temperature was also investigated by using differential scanning calorimetry (DSC). As a result, the melting temperature was 38.5° C. (FIG. 7).
# Spectrophotometric assay was also performed at room temperature to investigate the activity of MPIaG to para-nitrophenyl ester with various carbon chain lengths, the synthetic substrate. At this experiment, para-nitrophenyl butyrate (C4), para-nitrophenyl caprylate (C8), para-nitrophenyl caprate (C10), para-nitrophenyl laurate (C12), para-nitrophenyl palmitate (C16), and para-nitrophenyl stearate (C18) were used as substrates for the comparison of the activity. 5 mM Ca^2+ was added to the reaction solution. The reaction product para-nitrophenol was continuously measured for 5 minutes at OD450 using DU800 spectrophotometer (Beckman). To exclude the non-enzymatic hydrolysis value of the substrates, the activity was measured without enzyme for every measurement under different conditions, which would be the control reaction.
# [2] = Melting temperature by differential scanning calorimetry (DSC); assay type: physicochemical
# Method: as §2
# So, it was expected that the structural stability was increased by calcium ion (FIG. 7).
# [3] = Expression in E. coli BL21(DE3), Ni-NTA purification and SDS-PAGE
# Method: The E. coli BL21(DE3)/pET22b(+)-MPIaG constructed in Example 4 was cultured in a liquid nutritive medium [1% (w/v) trypton, 0.5% (w/v) yeast extract, 0.5% (w/v) NaCl] containing ampicillin (100 μg/ml) until OD600 reached 0.6. IPTG (isopropyl-β-D-thiogalactopyranoside) was added to the culture solution (final conc.: 0.5 mM), followed by further culture for 12 hours. E. coli BL21(DE3)/pET22b(+)-MPIaG was obtained by centrifugation, which was suspended in binding buffer (50 mM Tris-HCl, pH 8, 500 mM NaCl, 10 mM imidazole). The cell suspension was lysed by ultrasonication. The cell lysate was centrifuged to obtain supernatant. The supernatant was loaded on Ni-NTA (nitriloteiacetic acid) column to elute phospholipase and lipase by imidazole gradient, followed by dialysis-concentration. To confirm the purified phospholipase/lipase MPIaG, SDS-PAGE (sodium dodecyl sulfate-polyacrylamide gel electrophoresis) was performed, followed by staining with Coomassie brilliant blue.
# [4] = Clear zone on solid medium supplemented with tricaprylin emulsion (lipase activity); assay type: biochemical; settings: solid nutritive medium
# Description: When tricaprylin is decomposed by lipase, clear zone is formed. So, the colonies forming such clear zone were selected.
# (§3) The recombinant plasmid pFosPlaG derived from the metagenome library was isolated in the solid nutritive medium supplemented with tricaprylin emulsion which has been widely used for the isolation/confirmation of lipase gene. To investigate the phospholipase activity of the gene, the purified phospholipase/lipase MPIaG was loaded on the solid medium supplemented with phosphatydilcholine emulsion [0.5% (w/v) phosphatydilcholine, 0.5% (w/v) taurocholic acid, 20 mM CaCl2], followed by observing clear zone to confirm the activity.
# [5] = LC-MS of phosphatidylcholine hydrolysis products (chain length and site specificity); assay type: biochemical
# Method: Specificity of MPIaG over the location and chain length of phospholipid was investigated. To do so, phosphatydilcholine with different carbon chain lengths (C6, C7, C8, and C14) and 1-oleoly-2-palmitoyl-phosphatidylcholine (OPPC) were used. The purified MPIaG was added to 50 mM tris buffer (pH 8.0) containing 5 mM CaCl2 and 150 mM NaCl, followed by enzyme reaction along with 1 mM substrate for 12 hours at 25° C. The reaction product was analyzed by liquid chromatography mass spectrometry (LC-MS) using Finnigan LCQ. Advantage MAX ion trap mass spectrometer (Thermo Fisher Scientific) was equipped with electrospray ionization source. HPLC isolation was performed with HILIC guard column (4×2.0 mm, Phenomenex) and Kinetex HILIC column (2.6 μm, 2.1×100 mm, Phenomenex). The moving phase A was 10 mM ammonium formate whose pH was regulated as 3.0 with formic acid. The moving phase B was acetonitrile. Gradient elution was performed at the flow rate of 0.2 ml/min as follows: 0˜10 min., 10%˜40% A (linear gradient); 10˜20 min., 70% A (isocratic). Column temperature was room temperature, and the injection volume was 10 μL. Mass spectra were obtained from m/z in the negative ion mode 100˜1200 at the maximum ion injection time of 3 microscans and 200 ms.
# [6] = Clear zone on solid medium supplemented with phosphatydilcholine emulsion (phospholipase activity); assay type: biochemical; settings: 0.5% phosphatydilcholine, 0.5% taurocholic acid, 20 mM CaCl2
# Method: as §3
# [7] = pH-stat / pH titration of released fatty acid (hydrolysis of triacylglyceride, olive oil, phosphatidylcholine); assay type: biochemical; settings: for specific enzyme activity: pH 8.0, pH titrator
# Method: as §1
# The activity of MPIaG to hydrolyze triacylglyceride, olive oil, and phosphatidylcholine was measured by titrating free fatty acid using pH titrator (842 Tirando, Metrohm). By adding 10 mM NaOH solution, pH of the substrate emulsion was regulated to 8.0. Then, a proper amount of enzyme solution was added thereto. Excretion rate of fatty acid was measured by using pH titrator for 5 minutes. […] To exclude the non-enzymatic hydrolysis value of the substrates, the activity was measured without enzyme addition for every measurement under different conditions, which would be the control reaction.
# To further investigate specificity to substrate each having different carbon length, pH titration was performed with triacylglycerides such as tributyrin (C4), tricaprylin (C8), tricaprin (C10), trilaurin (C12), tripalmitin (C16), and triolein (C18:1).
# [8] = Substrate specificity to various phospholipids, clear zone on solid media with phospholipid emulsions; assay type: biochemical
# Method: To investigate substrate specificity to various phospholipids, the purified phospholipase/lipase MPIaG was added to the solid media respectively supplemented with various phospholipid emulsions. Then, the activity over phospholipid was investigated by comparing the size of clear zone. The phospholipid emulsion was composed of 0.5% (v/v) phospholipid substrate, 0.5% (w/v) taurocholic acid, and 20 mM CaCl2. The substrates used herein were phosphatydilcholine (PC, 99% purity), phosphatidylethanolamine (PE, 97% purity), phosphatidylserine (PS, 97% purity), phosphatidylinositol (PI, 98% purity), phosphatidylglycerol (PG, 99% purity), and phosphatidic acid (PA, 98% purity).
molecule,measurement,setting,value
B1,temperature of maximum activity,[1],25 °C
same,temperature up to which the enzyme is active,[1],up to 40 °C
same,"enzyme activity, % of maximum activity",[1]; at 5° C.,39%
same,pH of maximum activity,[1]; different pH buffers,8
same,substrate chain-length preference,"[1]; para-nitrophenyl esters C4-C18, 5 mM Ca^2+",para-nitrophenyl ester having long acyl straight chain
same,pH range in which enzyme activity was maintained stably,[1]; remaining activity after 180 minutes at different pH,5˜10
same,"highest activity, to para-nitrophenyl palmitate (C16)","[1]; room temperature, 5 mM Ca^2+, reference of the fold not stated",approximately 112 times
same,specific activity compared to the full-length phospholipase/lipase PlaG,[1]; synthetic substrate,at least two times increased specific activity
same,melting temperature,[2]; 0 mM calcium,38.5 °C
same,melting temperature,[2]; 2 mM calcium ion,47.2 °C
same,melting temperature,[2]; 5 mM calcium ion,49.2 °C
same,solubility of the expressed protein,[3],expressed in a water-soluble form
same,clear zone formation on tricaprylin emulsion medium,[4],formed clear zone on both solid media
same,"hydrolase activity of phosphatydilcholine to lysophosphatidylcholine, best substrate","[5]; 1 mM substrate, 12 hours, 25° C., 5 mM CaCl2","highest to 1,2-Dioctanoyl-phosphatidylcholine (diC8PC)"
same,hydrolysis site on OPPC (site specificity),"[5]; OPPC, 25° C., 12 hours, LC-MS",phospholipase A1
same,product 2-hexanoyl-lysophosphatidylcholine,"[5]; diC6PC, LC-MS after reaction",10.4%
same,"remaining substrate 1,2-dihexanoyl-phosphatidylcholine","[5]; diC6PC, LC-MS after reaction",89.6%
same,product 2-heptanoyl-lysophosphatidylcholine,"[5]; diC7PC, LC-MS after reaction",49.5%
same,"remaining substrate 1,2-diheptanoyl-phosphatidylcholine","[5]; diC7PC, LC-MS after reaction",50.5%
same,product 2-octanoyl-lysophosphatidylcholine,"[5]; diC8PC, LC-MS after reaction",50.4%
same,"remaining substrate 1,2-dioctanoyl-phosphatidylcholine","[5]; diC8PC, LC-MS after reaction",49.6%
same,product 2-myristoyl-lysophosphatidylcholine,"[5]; diC14PC, LC-MS after reaction",3.5%
same,"remaining substrate 1,2-dimyristoyl phosphatidylcholine","[5]; diC14PC, LC-MS after reaction",96.5%
same,substrate chain-length preference,"[5]; phosphatidylcholines C6, C7, C8, C14",phospholipid having medium length acyl straight chain
same,clear zone formation on phosphatydilcholine emulsion medium,[6],clear zone was clearly formed
same,clear zone formation on phosphatydilcholine emulsion medium,[6]; listed as the gene of the present invention,formed clear zone on both solid media
same,interfacial activity,[7]; as the concentration of tributyrin increased,showed interfacial activity
same,specific activity by pH-stat,[7]; substrate Olive oil,114.8 ± 11.3
same,specific activity by pH-stat,[7]; substrate Tributyrin (C4),140 ± 6.4
same,specific activity by pH-stat,[7]; substrate phosphatydilcholine,13.4 ± 1.5
same,specific enzyme activity,[7]; toward olive oil,2957±144 Umg^−1
same,specific enzyme activity,[7]; toward phosphatidylcholine,1735±147 Umg^−1
same,substrate chain-length preference,"[7]; triglycerides C4-C18:1, pH titration",triglyceride having short acyl straight chain
same,hydrolysis of triolein (C18:1),"[7]; triolein, not degraded by esterase",decomposed triolein
same,activity to phospholipid substrate (clear zone),[8]; substrate phosphatidic acid (PA),did not decompose
same,activity to phospholipid substrate (clear zone),[8]; substrate phosphatidylethanolamine (PE),excellent activity
same,activity to phospholipid substrate (clear zone),[8]; substrate phosphatidylglycerol (PG),excellent activity
same,activity to phospholipid substrate (clear zone),[8]; substrate phosphatidylserine (PS),did not decompose
same,activity to phospholipid substrate (clear zone),[8]; substrate phosphatydilcholine (PC),excellent activity
